B1: soluble HRP P. pastoris (Armoracia rusticana) (protein)
chain: QLTPTFYDNSCPNVSNIVRDTIVNELRSDPRIAASILRLHFHDCFVNGCDASILLDNTTSFRTEKDAFGNANSARGFPVIDRMKAAVESACPRTVSCADLLTIAAQQSVTLAGGPSWRVPLGRRDSLQAFLDLANANLPAPFFTLPQLKDSFRNVGLNRSSDLVALSGGHTFGKNQCRFIMDRLYNFSNTGLPDPTLNTTYLQTLRGLCPLNGNLSALVDFDLRTPTIFDNKYYVNLEEQKGLIQSDQELFSSPNATDTIPLVRSFANSTQTFFNAFVEAMDRMGNITPLTGTQGQIRLNCRVVNSNS
B2: refolded HRP E. coli (HRP C1A refolded from inclusion bodies) (Armoracia rusticana) (protein)
chain: B1 chain

Substrate: CCn1c(=NN=c2sc3cc(S(=O)(=O)O)ccc3n2CC)sc2cc(S(=O)(=O)O)ccc21
Experiment: purified protein
Conditions: 1 mM H2O2, 50 mM KH2PO4 pH 6.5, 30 °C

Row | Protein | Vmax [µmol/min/mg] | Km (ABTS 0.005–10 mM) [µM] | Vmax (ABTS 0.005–10 mM) [µmol/min/mg]
1 | B1 | 152 |  | 
2 | B2 |  | 1250 ± 100 | 62.5

Source: PMC5453243
